Reference: article PMC6393540, “A dual role in regulation and toxicity for the disordered N-terminus of the toxin GraT”

Biological target: Δ22GraT in Δ22GraT2A2 complex;GraA-His in Δ22GraT2A2 complex (Pseudomonas putida;Pseudomonas putida, UniProt Q88MI5;Q88MI6 23-92;1-99, del2-22|)
Experiment: ITC; macroscopic; ITC: 50 mM Tris pH 8.0, 250 mM NaCl, 2 mM β-mercaptoethanol (TCEP in purification for ITC), 25 °C; EMSA: 5 µM DNA, 30 min at room temperature, 6% native PAGE in TBE on ice
Conditions: protein: recombinant;recombinant; tags: ;C-terminal His6; chain copies: 2;2

B1: graTA operator wild type 33 bp (dsDNA)
DNA 1: AAATTAACGAATAACGTTAAGCATTCAGCTCAT
DNA 2: ATGAGCTGAATGCTTAACGTTATTCGTTAATTT
Ka: 2.3e+15 M^-2
